Molecular target: T1, SARS-CoV-2 S1 subunit-Fc (Fc-tagged S1 protein, The Native Antigen Company) (SARS-CoV-2, UniProt P0DTC2 14-674)
T1 construct: domain: S1 subunit
Assay: BLI (BLItz), His-tagged CoVHH1 on Ni-NTA sensor, S1-Fc 0-693.1 nM in solution, global fitting

B1: His-tagged CoVHH1 (VHH)
VHH: AEVQLVESGGGQVETGGSLRLSCQASGSTFSDYVMAWFRQRPGKEREFVATISRNGGTTTYGSSVKGRFTISRDNAKSTVYLQMNSLKPEDTAVYYCYAVGGDGDSWGQGTQVTVSSEPKTPKPQSHHHHHH
notes: also called CoVHH1-His; His-tagged VHH
  Kd: 7.13 nM
  koff: 0.000114 s⁻¹
  kon: 16000 M⁻¹ s⁻¹

Source: patent WO2021221136A1 (dated 2021)
